Test results published in US20230192903A1 (published 2023).

Key:
human CD3 antigen = biological target: T1, human CD3 antigen (human, UniProt P07766 23-126); assay: SPR (Biacore T200), human CD3 antigen amine-coupled on CM5 chip, 1:1 fit
T1 construct: also called Human CD3ϵ
Experimental: After the detection was completed, data fitting was carried out on the result pattern by adopting Biacore T200 Evaluation Software in a 1:1 binding fitting mode to obtain an equilibrium dissociation constant (KD).

Human CLDN18.2 [1] = biological target: T2, Human CLDN18.2 (human); assay: flow cytometry, NUGC4-hCLDN18.2 cells
T2 construct: the cell line is named under assay; also called hCLDN18.2; human CLDN18.2 antigen
Experimental: (§1) NUGC4 and NUGC4-hCLDN18.2 cells were cultured, digested with pancreatin and centrifuged to collect cells. The cells were collected and resuspended in buffer (PBS+1% FBS) at 1×10⁴ cells/well in a 96-well plate at 100 μL per well. Then the mixture was centrifuged at 350×g for 5 min, and the supernatant was removed.

Human CLDN18.2 [2] = biological target: T2, Human CLDN18.2; assay: cell-based or functional assay
Human CLDN18.2 [3] = biological target: T2, Human CLDN18.2; assay: flow cytometry, NUGC4 cells (endogenous CLDN18.2)
Experimental: as §1

Human CLDN18.2 [4] = biological target: T2, Human CLDN18.2; assay: cell-based or functional assay; remark: listed apart in the source

Row | Binder | Kd (human CD3 antigen) [nM] | EC50 (Human CLDN18.2 [1]) [nM] | Induction of expression of CD25 EC50 (pM), NUGC4 (Human CLDN18.2 [2]) [pM] | Induction of expression of CD25 EC50 (pM), NUGC4-hCLDN18.2 (Human CLDN18.2 [2]) [pM] | Induction of expression of CD69 EC50 (pM), NUGC4 (Human CLDN18.2 [2]) [pM] | Induction of expression of CD69 EC50 (pM), NUGC4-hCLDN18.2 (Human CLDN18.2 [2]) [pM] | EC50 (Human CLDN18.2 [3]) [nM] | EC50 (pM), in vitro killing by hPBMC, NUGC4-hCLDN18.2 cells (Human CLDN18.2 [4]) [pM] | EC50 (pM), in vitro killing by hPBMC, NUGC4 cells (Human CLDN18.2 [4]) [pM]
1 | bispecific antibody Y7 (bispecific antibody, human IgG1, kappa, YBODY structure: anti-CLDN18.2 Fab arm (2C6.9) and second monomer anti-CD3 scFv (Di6-2)-Fc) light: not shown heavy: QVQLQESGPGLVKPSETLSLTCTVSGFSLTRYGVSWIRQPPGKGLEWIGVIWGEGNTNYNPSLKSRVTISKDSSKSQVSLKLSSVTAADTAVYYCARVNFGNALDYWGQGTLVTVSSASTKGPSVFPLAPSSKSTSGGTAALGCLVKDYFPEPVTVSWNSGALTSGVHTFPAVLQSSGLYSLSSVVTVPSSSLGTQTYICNVNHKPSNTKVDKKVEPKSCDKTHTCPPCPAPPVAGPSVFLFPPKPKDTLMISRTPEVTCVVVDVSHEAPEVQFNWYVDGVEVHNAKTKPREEQFNSTFRVVSVLTVVHQDWLNGKEYKCKVSNKGLPAPIEKTISKTKGQPREPQVYTLPPCRDELTKNQVSLWCLVKGFYPSDIAVEWESNGQPENNYKTTPPVLDSDGSFFLYSKLTVDKSRWQQGNVFSCSVMHEALHNHYTQKSLSLSPGK QVQLVESGGGVVQPGRSLRLSCAASGFTFSTYAMNWVRQAPGKGLEWVGRIRSKYNNYATYYADSVKDRFTISRDDSKNTLYLQMNSLRGEDTAVYYCARHGNFGNSYVSWFAYWGQGTLVTVSSGGGGSGGGGSGGGGSQTVVTQEPSLTVSPGGTVTLTCRSSTGAVTTSNYANWVQQKPGQAPRGLIGGTNKRAPGVPARFSGSLLGGKAALTLSGVQPEDEAEYTCALWYSNLWVFGGGTKVEIKGRGRGSDKTHTCPPCPAPPVAGPSVFLFPPKPKDTLMISRTPEVTCVVVDVSHEAPEVQFNWYVDGVEVHNAKTKPREEQFNSTFRVVSVLTVVHQDWLNGKEYKCKVSNKGLPAPIEKTISKTKGQPREPQVCTLPPSRDELTKNQVSLSCAVKGFYPSDIAVEWESNGQPENNYKTTPPVLDSDGSFFLVSKLTVDKSRWQQGNVFSCSVMHEALHNHYTQKSLSLSPGK | 4.86 | 25.4 | 15.7 | 1.78 | 4.13 | 0.465 | 127 | 0.655 | 5.83
2 | bispecific antibody CS4 (bispecific antibody, human IgG1, kappa, CSBODY structure: two 2C6.9 Fab arms; second heavy chain (first heavy entry) and first heavy chain with anti-CD3 scFv (2a5) between CH1 and Fc2) light: not shown heavy 1: QVQLQESGPGLVKPSETLSLTCTVSGFSLTRYGVSWIRQPPGKGLEWIGVIWGEGNTNYNPSLKSRVTISKDSSKSQVSLKLSSVTAADTAVYYCARVNFGNALDYWGQGTLVTVSSASTKGPSVFPLAPSSKSTSGGTAALGCLVKDYFPEPVTVSWNSGALTSGVHTFPAVLQSSGLYSLSSVVTVPSSSLGTQTYICNVNHKPSNTKVDKKVEPKSCDKTHTCPPCPAPPVAGPSVFLFPPKPKDTLMISRTPEVTCVVVDVSHEAPEVQFNWYVDGVEVHNAKTKPREEQFNSTFRVVSVLTVVHQDWLNGKEYKCKVSNKGLPAPIEKTISKTKGQPREPQVYTLPPCRDELTKNQVSLWCLVKGFYPSDIAVEWESNGQPENNYKTTPPVLDSDGSFFLYSKLTVDKSRWQQGNVFSCSVMHEALHNHYTQKSLSLSPGK heavy 2: QVQLQESGPGLVKPSETLSLTCTVSGFSLTRYGVSWIRQPPGKGLEWIGVIWGEGNTNYNPSLKSRVTISKDSSKSQVSLKLSSVTAADTAVYYCARVNFGNALDYWGQGTLVTVSSASTKGPSVFPLAPSSKSTSGGTAALGCLVKDYFPEPVTVSWNSGALTSGVHTFPAVLQSSGLYSLSSVVTVPSSSLGTQTYICNVNHKPSNTKVDKKVEPKSCDKTHTAPAPAPAPAPAPAPAPQVQLVESGGGVVQPGRSLRLSCAASGFTFSTYAMNWVRQAPGKGLEWVARIRSKYNNYATYYADSVKDRFTISRDDSKNTLYLQMNSLRAEDTAVYYCARHGNFGNSYVSWFAYWGQGTLVTVSSGGGGSGGGGSGGGGSQTVVTQEPSLTVSPGGTVTLTCRSSTGAVTTSNYANWVQQKPGQAPRGLIGGTNKRAPGVPARFSGSLLGGKAALTLSGVQPEDEAEYYCALWYSNLWVFGGGTKVEIKGGGGSDKTHTCPPCPAPPVAGPSVFLFPPKPKDTLMISRTPEVTCVVVDVSHEAPEVQFNWYVDGVEVHNAKTKPREEQFNSTFRVVSVLTVVHQDWLNGKEYKCKVSNKGLPAPIEKTISKTKGQPREPQVCTLPPSRDELTKNQVSLSCAVKGFYPSDIAVEWESNGQPENNYKTTPPVLDSDGSFFLVSKLTVDKSRWQQGNVFSCSVMHEALHNHYTQKSLSLSPGK | 12 | 18.9 | 2.38 | 1.19 | 0.446 | 0.196 | 23.4 | 0.306 | 0.94
3 | bispecific antibody CS3 (bispecific antibody, human IgG1, kappa, CSBODY structure: two 1E9.2 Fab arms; second heavy chain (first heavy entry) and first heavy chain with anti-CD3 scFv (2a5) between CH1 and Fc2) light: not shown heavy 1: EVQLVESGGGLVKPGGSLRLSCAASGFSFSNSAMSWVRQAPGKGLEWVSTISSGDSYTYYADSVKGRFTISRDNAKNSLYLQMNSLRAEDTAVYYCARQGYGNALDYWGQGTLVTVSSASTKGPSVFPLAPSSKSTSGGTAALGCLVKDYFPEPVTVSWNSGALTSGVHTFPAVLQSSGLYSLSSVVTVPSSSLGTQTYICNVNHKPSNTKVDKKVEPKSCDKTHTCPPCPAPPVAGPSVFLFPPKPKDTLMISRTPEVTCVVVDVSHEAPEVQFNWYVDGVEVHNAKTKPREEQFNSTFRVVSVLTVVHQDWLNGKEYKCKVSNKGLPAPIEKTISKTKGQPREPQVYTLPPCRDELTKNQVSLWCLVKGFYPSDIAVEWESNGQPENNYKTTPPVLDSDGSFFLYSKLTVDKSRWQQGNVFSCSVMHEALHNHYTQKSLSLSPGK heavy 2: EVQLVESGGGLVKPGGSLRLSCAASGFSFSNSAMSWVRQAPGKGLEWVSTISSGDSYTYYADSVKGRFTISRDNAKNSLYLQMNSLRAEDTAVYYCARQGYGNALDYWGQGTLVTVSSASTKGPSVFPLAPSSKSTSGGTAALGCLVKDYFPEPVTVSWNSGALTSGVHTFPAVLQSSGLYSLSSVVTVPSSSLGTQTYICNVNHKPSNTKVDKKVEPKSCDKTHTAPAPAPAPAPAPAPAPQVQLVESGGGVVQPGRSLRLSCAASGFTFSTYAMNWVRQAPGKGLEWVARIRSKYNNYATYYADSVKDRFTISRDDSKNTLYLQMNSLRAEDTAVYYCARHGNFGNSYVSWFAYWGQGTLVTVSSGGGGSGGGGSGGGGSQTVVTQEPSLTVSPGGTVTLTCRSSTGAVTTSNYANWVQQKPGQAPRGLIGGTNKRAPGVPARFSGSLLGGKAALTLSGVQPEDEAEYYCALWYSNLWVFGGGTKVEIKGGGGSDKTHTCPPCPAPPVAGPSVFLFPPKPKDTLMISRTPEVTCVVVDVSHEAPEVQFNWYVDGVEVHNAKTKPREEQFNSTFRVVSVLTVVHQDWLNGKEYKCKVSNKGLPAPIEKTISKTKGQPREPQVCTLPPSRDELTKNQVSLSCAVKGFYPSDIAVEWESNGQPENNYKTTPPVLDSDGSFFLVSKLTVDKSRWQQGNVFSCSVMHEALHNHYTQKSLSLSPGK | 10 | 31.5 | 5.38 | 5.45 | 0.461 | 1.45 | 64 | 0.698 | 0.333
